Where a SMILES comes first, the peptide text is derived from it. [ ]: non-standard residue; d: D form.
Assays:
Assay in all cases: Competitive binding assay using cell extracts (Western blot)
Conditions in all cases: Cell extract; PRE 10X or 20X antibody concentration
[1] = system: PKC-βII; parameters: species or system human; key: —: no detectable affinity; Low to very low affinity at 10X or 20X or both PRE concentrations in at least one cell line in the cell extract assay; Low affinity in purified isoform assay.; Moderate affinity at 10X or 20X or both PRE concentrations in at least one cell line in the cell extract assay.; High affinity at 10X or 20X or both PRE concentrations in at least one cell line in the cell extract assay; High affinity in purified isoform assay
Method: (§1) Binding efficiency and specificity of the peptides PRE 2, 3, 4, 5, 6, 7, 8, 9, 10, 11, 12 and 13 (see Table 4) was also tested using cytoplasmic extracts from different cell lines expressing appropriate PKC isoforms as described for Example 1. Briefly, the protein cytoplasmic extracts were separated by electrophoresis and transferred onto nitrocellulose membranes by standard Western blotting procedures. The bands on the Western blots were detected with matching primary antibodies and alkaline phosphatase conjugated secondary antibody. The bands were then scanned and the relative density measurements obtained.
(§2) This procedure to assess the binding characteristics of the PREs is based on competition binding of the PRE with the primary anti-isoform PKC specific antibodies. The lower the measured band density, the greater the binding of the PRE to the PKC isoform. The PREs were added at 10 and 20 times (10×, 20×) the primary antibody concentration, according to classical competition between antigenic peptide and primary antibody. The following cell lines (obtained from the ATCC) were used: H661—NCI human lung carcinoma NSCLC; MDAMB231—human highly invasive breast cancer cell line from pleural effusion; LS180—human colon adenocarcinoma; LnCAP—human prostate adenocarcinoma; CCD16Lu—human lung fibroblasts; Du145—human prostate carcinoma brain metastasis, and T24—human bladder carcinoma.
(§3) In these cases, the 20× band density figures relative to control and 10× values were reliable.

[2] = molecular target: T1, PKC-ι (Homo sapiens, UniProt P41743); parameters: key: —: no detectable affinity; Low to very low affinity at 10X or 20X or both PRE concentrations in at least one cell line in the cell extract assay; Low affinity in purified isoform assay.; Moderate affinity at 10X or 20X or both PRE concentrations in at least one cell line in the cell extract assay.; High affinity at 10X or 20X or both PRE concentrations in at least one cell line in the cell extract assay; High affinity in purified isoform assay
T1 construct: cytoplasmic extracts from different cell lines expressing appropriate PKC isoforms; endogenous in cells; host or cells: H661, CCD16Lu, LnCAP, MDAMB231, Du145, LS180
T1 sequence (P41743 1-596): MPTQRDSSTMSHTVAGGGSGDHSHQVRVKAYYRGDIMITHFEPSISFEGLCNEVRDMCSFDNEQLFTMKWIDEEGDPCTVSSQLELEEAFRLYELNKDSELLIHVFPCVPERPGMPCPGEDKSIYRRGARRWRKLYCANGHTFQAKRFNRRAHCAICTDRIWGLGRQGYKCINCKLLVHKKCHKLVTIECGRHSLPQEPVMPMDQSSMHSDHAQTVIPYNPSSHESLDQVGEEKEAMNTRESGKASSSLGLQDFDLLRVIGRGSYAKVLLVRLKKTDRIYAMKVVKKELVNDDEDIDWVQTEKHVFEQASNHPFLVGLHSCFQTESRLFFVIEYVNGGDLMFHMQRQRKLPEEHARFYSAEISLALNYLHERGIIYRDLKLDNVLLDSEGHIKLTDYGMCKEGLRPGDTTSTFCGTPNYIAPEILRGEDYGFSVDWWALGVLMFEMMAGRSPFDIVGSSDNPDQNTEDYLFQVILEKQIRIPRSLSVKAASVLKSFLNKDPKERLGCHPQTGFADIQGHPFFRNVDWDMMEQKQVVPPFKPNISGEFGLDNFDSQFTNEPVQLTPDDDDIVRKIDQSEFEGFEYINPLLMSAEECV
Method: as §1, §2, §3

[3] = molecular target: T2, PKC-ζ (Homo sapiens, UniProt Q05513); parameters: cytoplasmic extracts from different cell lines expressing appropriate PKC isoforms; endogenous in cells; host or cells: H661, CCD16Lu, LnCAP, MDAMB231, Du145; key: —: no detectable affinity; Low to very low affinity at 10X or 20X or both PRE concentrations in at least one cell line in the cell extract assay; Low affinity in purified isoform assay.; Moderate affinity at 10X or 20X or both PRE concentrations in at least one cell line in the cell extract assay.; High affinity at 10X or 20X or both PRE concentrations in at least one cell line in the cell extract assay; High affinity in purified isoform assay
T2 sequence (Q05513 1-592): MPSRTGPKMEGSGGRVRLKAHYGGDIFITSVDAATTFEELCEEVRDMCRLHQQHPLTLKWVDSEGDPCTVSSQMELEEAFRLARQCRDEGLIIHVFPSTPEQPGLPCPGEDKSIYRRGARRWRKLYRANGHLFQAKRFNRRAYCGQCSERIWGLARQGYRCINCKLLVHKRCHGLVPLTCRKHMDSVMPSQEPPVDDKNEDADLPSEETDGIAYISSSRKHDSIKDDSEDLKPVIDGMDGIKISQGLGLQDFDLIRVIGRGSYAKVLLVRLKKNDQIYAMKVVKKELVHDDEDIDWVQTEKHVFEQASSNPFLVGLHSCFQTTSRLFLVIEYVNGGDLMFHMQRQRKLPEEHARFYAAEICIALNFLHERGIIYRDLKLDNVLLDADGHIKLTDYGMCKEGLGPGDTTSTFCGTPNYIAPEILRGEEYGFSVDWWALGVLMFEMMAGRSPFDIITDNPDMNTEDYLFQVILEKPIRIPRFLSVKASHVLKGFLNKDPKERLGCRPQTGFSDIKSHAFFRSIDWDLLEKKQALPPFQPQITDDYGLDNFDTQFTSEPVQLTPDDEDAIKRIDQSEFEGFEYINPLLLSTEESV
Method: as §1, §2, §3

## CC[C@H](C)[C@H](NC(=O)[C@H](CO)NC(=O)[C@@H](NC(=O)CNC(=O)[C@@H](NC(=O)[C@H](CC(C)C)NC(=O)[C@H](CC(N)=O)NC(=O)[C@H](CCC(N)=O)NC(=O)[C@H](C)NC(=O)[C@H](CC(=O)O)NC(=O)[C@H](CCCCN)NC(C)=O)[C@@H](C)CC)[C@@H](C)CC)C(N)=O [PRE 4, Ac-KDAQNLIGISI-NH2] (Ac-KDAQNLIGISI-NH2)
[1]
  Affinity for PKC isoform βII: L
[2]
  Affinity for PKC isoform ι: M/L
[3]
  Affinity for PKC isoform ζ: —

## CC[C@H](C)[C@H](NC(=O)[C@H](CO)NC(=O)[C@@H](NC(=O)CNC(=O)[C@@H](NC(=O)[C@H](CC(C)C)NC(=O)[C@H](CC(N)=O)NC(=O)[C@H](CCC(N)=O)NC(=O)[C@H](C)NC(=O)[C@H](CC(=O)O)NC(=O)[C@H](CCCCN)NC(=O)CNC(=O)CNC(=O)[C@H](CCCCN)NC(=O)[C@@H](NC(=O)[C@H](CCC(=O)O)NC(=O)[C@H](CCC(N)=O)NC(=O)[C@@H](NC(=O)CNC(=O)[C@H](CCCCN)NC(=O)[C@H](C)NC(C)=O)[C@@H](C)CC)C(C)C)[C@@H](C)CC)[C@@H](C)CC)C(N)=O [PRE 5] (Ac-AKGIQEVKGGKDAQNLIGISI-NH2)
[1]
  Affinity for PKC isoform βII: H
[3]
  Affinity for PKC isoform ζ: L/H

## Ac-RDAQNLIGISI-NH2 [PRE 11]
[3]
  Affinity for PKC isoform ζ: —

## Ac-ISIGILNQADK-NH2 [PRE 10]
[1]
  Affinity for PKC isoform βII: —
[3]
  Affinity for PKC isoform ζ: M/L

## CC[C@H](C)[C@H](NC(=O)[C@H](CO)NC(=O)[C@@H](NC(=O)CNC(=O)[C@@H](NC(=O)[C@H](CC(C)C)NC(=O)[C@H](CC(N)=O)NC(=O)[C@H](CCC(N)=O)NC(=O)[C@H](C)NC(=O)[C@H](CC(=O)O)NC(=O)CNC(=O)CNC(=O)[C@H](CCCCN)NC(=O)[C@@H](NC(=O)[C@H](CCC(=O)O)NC(=O)[C@H](CCC(N)=O)NC(=O)[C@@H](NC(=O)CNC(=O)[C@H](CCCCN)NC(=O)[C@H](C)NC(C)=O)[C@@H](C)CC)C(C)C)[C@@H](C)CC)[C@@H](C)CC)C(N)=O [PRE 3] (Ac-AKGIQEVKGGDAQNLIGISI-NH2)
[1]
  Affinity for PKC isoform βII: L
[2]
  Affinity for PKC isoform ι: L
[3]
  Affinity for PKC isoform ζ: —

## Ac-KDAQNLI-NH2 [PRE 12]
[1]
  Affinity for PKC isoform βII: L
[2]
  Affinity for PKC isoform ι: —
[3]
  Affinity for PKC isoform ζ: M/H

## RRKKGGKDFVVKR [PRE 1]
[2]
  Affinity for PKC isoform ι: —
[3]
  Affinity for PKC isoform ζ: L

## Ac-ISIGILQNADK-NH2 (not fully specified; printed as Ac-ISIGILQNADK-NH2) [PRE 7]
[2]
  Affinity for PKC isoform ι: —
[3]
  Affinity for PKC isoform ζ: —

## Ac-isigilqnadk-NH2 (Ac-[dI][dS][dI]G[dI][dL][dQ][dN][dA][dD][dK]-NH2; SMILES CC[C@@H](C)[C@@H](NC(C)=O)C(=O)N[C@H](CO)C(=O)N[C@@H](C(=O)NCC(=O)N[C@@H](C(=O)N[C@H](CC(C)C)C(=O)N[C@H](CCC(N)=O)C(=O)N[C@H](CC(N)=O)C(=O)N[C@H](C)C(=O)N[C@H](CC(=O)O)C(=O)N[C@H](CCCCN)C(N)=O)[C@H](C)CC)[C@H](C)CC) [PRE 9]
[1]
  Affinity for PKC isoform βII: —
[3]
  Affinity for PKC isoform ζ: M/L

## Ac-RDAQNLI-NH2 [PRE 13]
[2]
  Affinity for PKC isoform ι: —
[3]
  Affinity for PKC isoform ζ: —

## ILEDKGGDAQNLIGISI [PRE 8]
[1]
  Affinity for PKC isoform βII: H

## Ac-KDANQLIGISI-NH2 [PRE 6]
[2]
  Affinity for PKC isoform ι: —
[3]
  Affinity for PKC isoform ζ: —
